Experimental data: article PMC11321632 (2024)

Target: Lysosomal Ras-associated protein 7a (RAB7A), recombinant mouse protein (mouse, UniProt P51150 1-207)
Assay: SPR

Chain of Lysosomal Ras-associated protein 7a (RAB7A), recombinant mouse protein (P51150 whole entry): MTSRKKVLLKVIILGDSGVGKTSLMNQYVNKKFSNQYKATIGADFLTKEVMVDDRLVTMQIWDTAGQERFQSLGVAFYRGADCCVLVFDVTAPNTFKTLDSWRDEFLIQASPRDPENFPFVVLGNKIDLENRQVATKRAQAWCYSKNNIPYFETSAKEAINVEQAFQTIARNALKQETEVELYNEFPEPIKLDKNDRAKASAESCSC

Kd: 31.8 nM
B1: Sirtuin 5 (SIRT5), recombinant mouse protein (enzyme)
chain: SSNMADFRKCFANAKHIAIISGAGVSAESGVPTFRGAGGYWRKWQAQDLATPQAFARNPSQVWEFYHYRREVMRSKEPNPGHLAIAQCEARLRDQGRRVVVITQNIDELHRKAGTKNLLEIHGTLFKTRCTSCGTVAENYRSPICPALAGKGAPEPETQDARIPVDKLPRCEEAGCGGLLRPHVVWFGENLDPAILEEVDRELALCDLCLVVGTSSVVYPAAMFAPQVASRGVPVAEFNMETTPATDRFRFHFPGPCGKTLPEALAPHETERTS
